Assay [1] concerns the target T1, human IL4Rα/Fc (R and D Systems 604-4R) (human, UniProt P24394 26-231, limits assumed, biotin labelled in the assay of Example 5).
T1 construct: bought protein; also called IL-4Rα/Fc (R&D systems Cat. No. 604-4R-050); not shown: Fc part of the bought fusion
T1 sequence (looked up): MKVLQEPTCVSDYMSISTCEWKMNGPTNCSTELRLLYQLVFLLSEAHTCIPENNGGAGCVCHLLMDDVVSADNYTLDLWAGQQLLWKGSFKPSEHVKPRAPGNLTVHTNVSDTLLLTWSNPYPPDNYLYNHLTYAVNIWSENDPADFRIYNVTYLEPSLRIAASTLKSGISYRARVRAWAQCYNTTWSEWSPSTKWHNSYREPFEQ
Description: HTRF receptor-ligand assay, purified scFv against biotinylated human IL4. On the technique in general: In TR-FRET formats the signal depends on donor and acceptor labels being close together.

The target of assay [2] is T2, cynomolgus IL4Rα/Fc HIS6 (HEK expressed) (cynomolgus monkey).
T2 construct: also called Cyno IL4R; cynomolgus IL-4Rα HIS Fc (in house HEK-EBNA derived); not shown: HIS6 tag
The experiment in a line: HTRF receptor-ligand assay, purified scFv against biotinylated cynomolgus IL4.

The term Ki denotes a dissociation constant, usually derived from enzyme kinetics or from competition with a known ligand. A lower Ki goes with higher affinity.

T2 sequence (chain, as listed by the source): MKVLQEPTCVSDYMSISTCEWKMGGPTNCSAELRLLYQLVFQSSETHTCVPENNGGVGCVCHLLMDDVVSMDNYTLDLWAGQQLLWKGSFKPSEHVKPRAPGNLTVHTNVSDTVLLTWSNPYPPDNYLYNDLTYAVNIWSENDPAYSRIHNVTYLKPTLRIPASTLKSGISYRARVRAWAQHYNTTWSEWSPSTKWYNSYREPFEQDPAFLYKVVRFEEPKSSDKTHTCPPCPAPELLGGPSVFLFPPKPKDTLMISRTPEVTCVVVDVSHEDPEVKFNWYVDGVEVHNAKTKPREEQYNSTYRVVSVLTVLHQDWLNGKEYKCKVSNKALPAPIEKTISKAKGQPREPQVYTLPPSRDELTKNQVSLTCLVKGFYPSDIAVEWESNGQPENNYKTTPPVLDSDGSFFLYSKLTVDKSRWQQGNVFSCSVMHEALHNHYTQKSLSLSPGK

B1: Antibody 3 scFv (scFv, V domains shown)
VH: QVQLVQSGAEVKKPGASVKVSCKASGYAFTSYYMHWARQAPGQGLEWMGIINPSGGSTSYAQKFQGRVTMTRDTSTSTVYMELSSLRSEDTAVYYCARGKLLKNPWGKGTLVTVSS
VL: QSVLTQPPSVSAAPGQKVTISCSGGSSNIGNSYVSWYQQLPGTAPKLLIYDNNKRPSGIPDRFSGSKSGTSATLAITGLQTGDEADYYCGTWFGTPASNYVFGTGTKLTVL
notes: tested as purified scFv
On to B1, for which the Ki came to 0.5 nM in assay [1] and 48 nM in assay [2].

B2: Antibody 20 scFv (scFv, V domains shown)
VH: QVQLVQSGAEVKKPGASVKVSCKASGYAFTSYYMHWARQAPGQGLEWMGIINPSGGSTSYAQKFQGRVTMTRDTSTSTVYMELSSLRSEDTAVYYCARGKYWMYDWGKGTLVTVSS
VL: QSVLTQPPSVSAAPGQKVTISCSGGSSNIGNSYVSWYQQLPGTAPKLLIYDNNKRPSGIPDRFSGSKSGTSATLAITGLQTGDEADYYCGTWDTSTVWEWPFGTGTKLTVL
notes: tested as purified scFv
As for B2, the Ki was 0.7 nM in assay [1] and 4.2 nM in assay [2].

B3: Antibody 4 scFv (scFv, V domains shown)
VH: QVQLVQSGAEVKKPGASVKVSCKASGYAFTSYYMHWARQAPGQGLEWMGIINPSGGSTSYAQKFQGRVTMTRDTSTSTVYMELSSLRSEDTAVYYCARGKWWLYNWGKGTLVTVSS
VL: QSVLTQPPSVSAAPGQKVTISCSGGSSNIGNSYVSWYQQLPGTAPKLLIYDNNKRPSGIPDRFSGSKSGTSATLAITGLQTGDEADYYCGTWDTSSPPQPIFGTGTKLTVL
notes: tested as purified scFv
On to B3, for which the Ki was 0.8 nM in assay [1] and 6.8 nM in assay [2].

B4: Antibody 39 scFv (scFv, V domains shown)
VH: QVQLVQSGAEVKKPGASVKVSCKASGYAFTSYYMHWARQAPGQGLEWMGIINPRGGSTSYAQKFQGRVTMTRDTSTSTVYMELSSLRSEDTAVYYCARGKYWMYDWGKGTLVTVSS
VL: QSVLTQPPSVSAAPGQKVTISCSGGSSNIGNSYVSWYQQLPGTAPKLLIYDNNKRPSGIPDRFSGSKSGTSATLAITGLQTGDEADYYCGTWDTSTAWEWPFGTGTKLTVL
notes: tested as purified scFv
Take B4: the Ki is 0.027 nM in assay [1] and 1.6 nM in assay [2].

B5: Antibody 9 scFv (scFv, V domains shown)
VH: QVQLVQSGAEVKKPGASVKVSCKASGYAFTSYYMHWARQAPGQGLEWMGIINPSGGSTSYAQKFQGRVTMTRDTSTSTVYMELSSLRSEDTAVYYCARGKWWLYNWGKGTLVTVSS
VL: QSVLTQPPSVSAAPGQKVTISCSGGSSNIGNSYVSWYQQLPGTAPKLLIYDNNKRPSGIPDRFSGSKSGTSATLAITGLQTGDEADYYCGTWDTSTTMYPLFGTGTKLTVL
notes: tested as purified scFv
In the case of B5, the Ki is 0.1 nM in assay [1] and 12.9 nM in assay [2].

B6: Antibody 10 scFv (scFv, V domains shown)
VH: QVQLVQSGAEVKKPGASVKVSCKASGYAFTSYYMHWARQAPGQGLEWMGIINPSGGSTSYAQKFQGRVTMTRDTSTSTVYMELSSLRSEDTAVYYCARGKWWLYDWGKGTLVTVSS
VL: QSVLTQPPSVSAAPGQKVTISCSGGSSNIGNSYVSWYQQLPGTAPKLLIYDNNKRPSGIPDRFSGSKSGTSATLAITGLQTGDEADYYCGTWDTSTVLTPIFGTGTKLTVL
notes: tested as purified scFv
For B6, the figures for the Ki in assay [1] and in assay [2] were 0.5 nM and 19.6 nM, respectively.

B7: Antibody 8 scFv (scFv, V domains shown)
VH: QVQLVQSGAEVKKPGASVKVSCKASGYAFTSYYMHWARQAPGQGLEWMGIINPSGGSTSYAQKFQGRVTMTRDTSTSTVYMELSSLRSEDTAVYYCARGKWWWQYWGKGTLVTVSS
VL: QSVLTQPPSVSAAPGQKVTISCSGGSSNIGNSYVSWYQQLPGTAPKLLIYDNNKRPSGIPDRFSGSKSGTSATLAITGLQTGDEADYYCGTWDTSTTYHPIFGTGTKLTVL
notes: tested as purified scFv
In the case of B7, the Ki in assay [1] stood at 0.4 nM; in assay [2] it was 9.4 nM.

B8: Antibody 34 scFv (scFv, V domains shown)
VH: QVQLVQSGAEVKKPGASVKVSCKASGYAFTSYYMHWARQAPGQGLEWMGIINPSGGSTSYAQKFQGRVSMTRDTSTSTVYMELSSLRSEDTAVYYCARGKYWMYDWGKGTLVTVSS
VL: QSVLTQPPSVSAAPGQKVTISCSGGSSNIGNSYVSWYQQLPGTAPKLLIYDNNKRPSGIPDRFSGSKSGTSATLAITGLQTGDEADYFCGTWDTSTVWEWPFGTGTKLTVL
notes: tested as purified scFv
Turning to B8, the Ki is 0.056 nM in assay [1] and 1.2 nM in assay [2].

B9: Antibody 6 scFv (scFv, V domains shown)
VH: QVQLVQSGAEVKKPGASVKVSCKASGYAFTSYYMHWARQAPGQGLEWMGIINPSGGSTSYAQKFQGRVTMTRDTSTSTVYMELSSLRSEDTAVYYCARGKYWMYDWGKGTLVTVSS
VL: QSVLTQPPSVSAAPGQKVTISCSGGSSNIGNSYVSWYQQLPGTAPKLLIYDNNKRPSGIPDRFSGSKSGTSATLAITGLQTGDEADYYCGTWDTSTTYHPIFGTGTKLTVL
notes: tested as purified scFv
As to B9, the Ki in assay [1] was 0.3 nM; in assay [2], 3.5 nM.

B10: Antibody 12 scFv (scFv, V domains shown)
VH: QVQLVQSGAEVKKPGASVKVSCKASGYAFTSYYMHWARQAPGQGLEWMGIINPSGGSTSYAQKFQGRVTMTRDTSTSTVYMELSSLRSEDTAVYYCARGKWWFYDWGKGTLVTVSS
VL: QSVLTQPPSVSAAPGQKVTISCSGGSSNIGNSYVSWYQQLPGTAPKLLIYDNNKRPSGIPDRFSGSKSGTSATLAITGLQTGDEADYYCGTWDTSTTMYPLFGTGTKLTVL
notes: tested as purified scFv
With B10, the results for the Ki in assay [1] and in assay [2] were 0.3 nM and 7.2 nM, respectively.

B11: Antibody 5 scFv (scFv, V domains shown)
VH: QVQLVQSGAEVKKPGASVKVSCKASGYAFTSYYMHWARQAPGQGLEWMGIINPSGGSTSYAQKFQGRVTMTRDTSTSTVYMELSSLRSEDTAVYYCARGKWWLYDWGKGTLVTVSS
VL: QSVLTQPPSVSAAPGQKVTISCSGGSSNIGNSYVSWYQQLPGTAPKLLIYDNNKRPSGIPDRFSGSKSGTSATLAITGLQTGDEADYYCGTWDTSSPPQPIFGTGTKLTVL
notes: tested as purified scFv
Turning to B11, the Ki amounted to 0.6 nM in assay [1] and 3.8 nM in assay [2].

B12: Antibody 17 scFv (scFv, V domains shown)
VH: QVQLVQSGAEVKKPGASVKVSCKASGYAFTSYYMHWARQAPGQGLEWMGIINPSGGSTSYAQKFQGRVTMTRDTSTSTVYMELSSLRSEDTAVYYCARGKWWWQHWGKGTLVTVSS
VL: QSVLTQPPSVSAAPGQKVTISCSGGSSNIGNSYVSWYQQLPGTAPKLLIYDNNKRPSGIPDRFSGSKSGTSATLAITGLQTGDEADYYCGTWDTSPVDRPIFGTGTKLTVL
notes: tested as purified scFv
On to B12, for which the results for the Ki in assay [1] and in assay [2] were 0.9 nM and 43.5 nM, respectively.

B13: Antibody 11 scFv (scFv, V domains shown)
VH: QVQLVQSGAEVKKPGASVKVSCKASGYAFTSYYMHWARQAPGQGLEWMGIINPSGGSTSYAQKFQGRVTMTRDTSTSTVYMELSSLRSEDTAVYYCARGKWWFYDWGKGTLVTVSS
VL: QSVLTQPPSVSAAPGQKVTISCSGGSSNIGNSYVSWYQQLPGTAPKLLIYDNNKRPSGIPDRFSGSKSGTSATLAITGLQTGDEADYYCGTWDTSPSMIPLFGTGTKLTVL
notes: tested as purified scFv
Turning to B13, the Ki came out at 0.7 nM in assay [1] and 26.1 nM in assay [2].

B14: Antibody 29 scFv (scFv, V domains shown)
VH: QVQLVQSGAEVKKPGASVKVSCKASGYAFTSYYMHWARQAPGQGLEWMGIINPSGGSTSYAQKFQGRVTMTRDTSTSTVYMELSSLRSEDTAVYYCARGKYWMYDWGKGTRVTVSS
VL: QSVLTQPPSVSAAPGQKVTISCSGGSSNIGNSYVSWYQQLPGTAPKLLIYDNNKRPSGIPDRFSGSKSGTSATLAITGLQTGDEADYYCGTWDTSPVWEWPFGTGTKLTVL
notes: tested as purified scFv
Regarding B14, the Ki in assay [1] worked out at 0.061 nM; in assay [2] it was 2.4 nM.

B15: Antibody 7 scFv (scFv, V domains shown)
VH: QVQLVQSGAEVKKPGASVKVSCKASGYAFTSYYMHWARQAPGQGLEWMGIINPSGGSTSYAQKFQGRVTMTRDTSTSTVYMELSSLRSEDTAVYYCARGKWWWQYWGKGTLVTVSS
VL: QSVLTQPPSVSAAPGQKVTISCSGGSSNIGNSYVSWYQQLPGTAPKLLIYDNNKRPSGIPDRFSGSKSGTSATLAITGLQTGDEADYYCGTWDTSSPPQPIFGTGTKLTVL
notes: tested as purified scFv
As to B15, the values for the Ki in assay [1] and in assay [2] were 1.1 nM and 16.5 nM, respectively.

B16: Antibody 2 scFv (scFv, V domains shown)
VH: QVQLVQSGAEVKKPGASVKVSCKASGYAFTSYYMHWARQAPGQGLEWMGIINPSGGSTSYAQKFQGRVTMTRDTSTSTVYMELSSLRSEDTAVYYCARGKWWLYNWGKGTLVTVSS
VL: QSVLTQPPSVSAAPGQKVTISCSGGSSNIGNSYVSWYQQLPGTAPKLLIYDNNKRPSGIPDRFSGSKSGTSATLAITGLQTGDEADYYCGTWDTSQPPNPLFGTGTKLTVL
notes: tested as purified scFv
On to B16, for which the Ki in assay [1] came to 0.6 nM; in assay [2] it was 4.3 nM.

B17: Antibody 36 scFv (scFv, V domains shown)
VH: QVQLVQSGAEVKKPGASVKVSCKASGYAFTSYYMHWARQAPGQGLEWMGIINPSGGSASYAQKFQGRVTMTRDTSTSTVYMELSSLRSEDTAVYYCARGKYWMYDWGKGTLVTVSS
VL: QSVLTQPPSVSAAPGQKVTISCSGGSSNIGNSYVSWYQQLPGTAPKLLIYDNNKRPSGIPDRFSGSKSGTSATLAITGLQTGDEADYYCGTWDSSTVWEWPFGTGTKLTVL
notes: tested as purified scFv
Take B17: the Ki turned out to be 0.1 nM in assay [1] and 5.3 nM in assay [2].

B18: Antibody 32 scFv (scFv, V domains shown)
VH: QVQLVQSGAEVKKPGASVKVSCKASGYAFTSYYMHWARQAPGQGLEWMGIINPSGGSTSYAQKFQGRVTMTRDTSTSTVYMELSSLRSEDTAVYYCARGKYWMYDWGKGTLVTVSS
VL: QSVLTQPPSVSAAPGQKVTISCSGGSSNIGNSYVSWYQQLPGTAPKLLIYDNNKRPSGIPDRFSGSKSGTSATLAITGLQTGDEADYFCGTWDTSTAWEWPFGTGTKLTVL
notes: tested as purified scFv
Turning to B18, the Ki was determined as 0.075 nM in assay [1] and 1.3 nM in assay [2].

B19: Antibody 14 scFv (scFv, V domains shown)
VH: QVQLVQSGAEVKKPGASVKVSCKASGYAFTSYYMHWARQAPGQGLEWMGIINPSGGSTSYAQKFQGRVTMTRDTSTSTVYMELSSLRSEDTAVYYCARGKWWLYNWGKGTLVTVSS
VL: QSVLTQPPSVSAAPGQKVTISCSGGSSNIGNSYVSWYQQLPGTAPKLLIYDNNKRPSGIPDRFSGSKSGTSATLAITGLQTGDEADYYCGTWDTSPPTKPLFGTGTKLTVL
notes: tested as purified scFv
Regarding B19, the Ki in assay [1] came to 0.6 nM; in assay [2], 27.7 nM.

The values are drawn from US20180057596A1 (AstraZeneca / MedImmune, published 2018).
